T1: recombinant human TL1A (human, UniProt O95150 71-251)
T1 chain: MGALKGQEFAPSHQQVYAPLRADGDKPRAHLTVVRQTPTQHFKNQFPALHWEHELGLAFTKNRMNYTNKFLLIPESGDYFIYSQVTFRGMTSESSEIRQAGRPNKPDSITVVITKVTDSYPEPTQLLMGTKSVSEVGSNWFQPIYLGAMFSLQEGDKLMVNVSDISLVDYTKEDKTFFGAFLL


Tests used:
[1] = biological target: T1, recombinant human TL1A; test: cell-based or functional assay
[2] = biological target: T1, recombinant human TL1A; test: SPR, recombinant human TL1A
[3] = biological target: T2, bovine serum albumin (bovine, UniProt P02769 25-607); test: direct binding ELISA on plate-coated BSA (1 ug/mL), anti-human IgG-Fc HRP, OD450
T2 construct: also called BSA
T2 sequence (P02769 25-607 limits assumed): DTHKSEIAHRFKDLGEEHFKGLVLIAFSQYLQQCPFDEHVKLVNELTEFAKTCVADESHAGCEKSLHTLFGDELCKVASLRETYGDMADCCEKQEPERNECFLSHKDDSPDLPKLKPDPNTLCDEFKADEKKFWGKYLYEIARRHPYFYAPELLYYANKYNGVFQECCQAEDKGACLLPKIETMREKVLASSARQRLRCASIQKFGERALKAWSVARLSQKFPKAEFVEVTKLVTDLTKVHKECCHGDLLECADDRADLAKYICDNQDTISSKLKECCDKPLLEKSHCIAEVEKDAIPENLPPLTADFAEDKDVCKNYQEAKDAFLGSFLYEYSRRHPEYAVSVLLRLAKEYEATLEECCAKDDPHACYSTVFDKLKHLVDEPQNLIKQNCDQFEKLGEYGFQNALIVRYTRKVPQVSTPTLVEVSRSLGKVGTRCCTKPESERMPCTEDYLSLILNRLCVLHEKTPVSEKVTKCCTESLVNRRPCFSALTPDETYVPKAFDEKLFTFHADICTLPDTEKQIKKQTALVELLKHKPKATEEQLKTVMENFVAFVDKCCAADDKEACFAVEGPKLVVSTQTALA
Procedure: (§1) For the direct binding ELISA method to HSA or BSA, 96-well high binding plates (Corning, product number 3590) were coated with 1 μg/mL recombinant HSA or BSA in 100 μL/well in PBS overnight at 4° C. Plates were then blocked in PBS+0.02% casein solution and washed with PBS+0.05% Tween-20 following standard ELISA protocol. […] Plates were washed with PBS+0.05% Tween-20 following standard ELISA protocol, and goat anti-human IgG-Fc HRP conjugated secondary antibody (Pierce, #31413) diluted to 1:10,000 in assay buffer was added to plates and incubated for 1 hour at room temperature. Next, the plates were washed with PBS+0.05% Tween-20 following standard ELISA protocol, and then TMB substrate (BioFX Laboratories, catalog number TMBW-0100-01) was added to plates.
(§2) Reactions were stopped after approximately 5 minutes by adding 0.18 M ortho-phosphoric acid to each well and absorbance was read at 450 nm. […] For this method, samples diluted to 0.3 mg/mL were dispensed into the sample tray of a MicroCal VP-Capillary DSC with Autosampler (Malvern Instruments, Inc.), equilibrated for 5 minutes at 10° C. and then scanned up to 110° C. at a rate of 100° C. per/hour. A filtering period of 16 seconds was selected. Raw data was baseline corrected and the protein concentration was normalized. Origin Software 7.0 (Origin Lab Corporation, Northampton, MA) was used to fit the data to an MN2-State Model with an appropriate number of transitions.

[4] = biological target: T3, human serum albumin (human, UniProt P02768 25-609); test: direct binding ELISA on plate-coated HSA (1 ug/mL), anti-human IgG-Fc HRP, OD450
T3 construct: also called HSA
Procedure: as §1, §2

Binder	NFκB Bioassay IC50 [1]	Kd [2]	koff [2]	kon [2]	binding result [3]	binding result [4]
TL1A-0370 (bispecific antibody, also called TL1A-0370 MBsAb; not shown: human IgG1 constant region with effector-minimizing, KiH and LS mutations) heavy 1: QVQLVQSGAEVKKPGASVKVSCKASGYDYTYYGISWVRQAPGQGLEWMGWISTYNTGTHYAPSLQGRVTMTTDTSTSTAYMELRSLRSDDTAVYYCARESYYGSGAFRGGMDVWGQGTTVTVSSASTKGPSVFPLAPSSKSTSGGTAALGCLVKDYFPEPVTVSWNSGALTSGVHTFPAVLQSSGLYSLSSVVTVPSSSLGTQTYICNVNHKPSNTKVDKKVEPKSCDKTHTCPPCPAPEAAGAPSVFLFPPKPKDTLMISRTPEVTCVVVDVSHEDPEVKFNWYVDGVEVHNAKTKPREEQYNSTYRVVSVLTVLHQDWLNGKEYKCKVSNKALPAPIEKTISKAKGQPREPQVCTLPPSREEMTKNQVSLWCLVKGFYPSDIAVEWESNGQPENNYKTTPPVLDSDGSFFLYSKLTVDKSRWQQGNVFSCSVLHEALHSHYTQKSLSLSPGK heavy 2: QVQLVQSGAEVKKPGASVKVSCKASGYTFTSYGISWVRQAPGQGLEWMGWISAYNGNTNYAQKLQGRVTMTTDTSTSTAYMELRSLRSDDTAVYYCARESSYGSEAFRAGMDVWGQGTTVTVSS light: not shown	1.46 nM	0.303 nM	5.73e-05 s⁻¹	190000 M⁻¹ s⁻¹	no binding (tested: 1e-6 M)	no binding (tested: 1e-6 M)
TL1A-0371 (bispecific antibody, also called TL1A-0371 MBsAb; not shown: human IgG1 constant region with effector-minimizing, KiH and LS mutations) heavy 1: QVQLVQSGAEVKKPGASVKVSCKASGYDYTYYGISWVRQAPGQGLEWMGWISTYNTGTHYAPSLQGRVTMTTDTSTSTAYMELRSLRSDDTAVYYCARESYYGSGAFRGGMDVWGQGTTVTVSSASTKGPSVFPLAPSSKSTSGGTAALGCLVKDYFPEPVTVSWNSGALTSGVHTFPAVLQSSGLYSLSSVVTVPSSSLGTQTYICNVNHKPSNTKVDKKVEPKSCDKTHTCPPCPAPEAAGAPSVFLFPPKPKDTLMISRTPEVTCVVVDVSHEDPEVKFNWYVDGVEVHNAKTKPREEQYNSTYRVVSVLTVLHQDWLNGKEYKCKVSNKALPAPIEKTISKAKGQPREPQVCTLPPSREEMTKNQVSLWCLVKGFYPSDIAVEWESNGQPENNYKTTPPVLDSDGSFFLYSKLTVDKSRWQQGNVFSCSVLHEALHSHYTQKSLSLSPGK heavy 2: not shown light: not shown	1.37 nM	0.261 nM	4.36e-05 s⁻¹	168000 M⁻¹ s⁻¹	no binding (tested: 1e-6 M)	no binding (tested: 1e-6 M)
TL1A-0373 (bispecific antibody, not shown: human IgG1 constant region with effector-minimizing, KiH and LS mutations) heavy 1: QVQLVQSGAEVKKPGASVKVSCKASGYDYTYYGISWVRQAPGQGLEWMGWISTYNTGTHYAPSLQGRVTMTTDTSTSTAYMELRSLRSDDTAVYYCARESYYGSGAFRGGMDVWGQGTTVTVSSASTKGPSVFPLAPSSKSTSGGTAALGCLVKDYFPEPVTVSWNSGALTSGVHTFPAVLQSSGLYSLSSVVTVPSSSLGTQTYICNVNHKPSNTKVDKKVEPKSCDKTHTCPPCPAPEAAGAPSVFLFPPKPKDTLMISRTPEVTCVVVDVSHEDPEVKFNWYVDGVEVHNAKTKPREEQYNSTYRVVSVLTVLHQDWLNGKEYKCKVSNKALPAPIEKTISKAKGQPREPQVCTLPPSREEMTKNQVSLWCLVKGFYPSDIAVEWESNGQPENNYKTTPPVLDSDGSFFLYSKLTVDKSRWQQGNVFSCSVLHEALHSHYTQKSLSLSPGK heavy 2: not shown light: not shown	1.66 nM	0.285 nM	4.95e-05 s⁻¹	173000 M⁻¹ s⁻¹	no binding (tested: 1e-6 M)	no binding (tested: 1e-6 M)
TL1A-0374 (bispecific antibody, also called TL1A-0374 MBsAb; not shown: human IgG1 constant region with effector-minimizing, KiH and LS mutations) heavy 1: QVQLVQSGAEVKKPGASVKVSCKASGYDYTYYGISWVRQAPGQGLEWMGWISTYNTGTHYAPSLQGRVTMTTDTSTSTAYMELRSLRSDDTAVYYCARESYYGSGAFRGGMDVWGQGTTVTVSSASTKGPSVFPLAPSSKSTSGGTAALGCLVKDYFPEPVTVSWNSGALTSGVHTFPAVLQSSGLYSLSSVVTVPSSSLGTQTYICNVNHKPSNTKVDKKVEPKSCDKTHTCPPCPAPEAAGAPSVFLFPPKPKDTLMISRTPEVTCVVVDVSHEDPEVKFNWYVDGVEVHNAKTKPREEQYNSTYRVVSVLTVLHQDWLNGKEYKCKVSNKALPAPIEKTISKAKGQPREPQVCTLPPSREEMTKNQVSLWCLVKGFYPSDIAVEWESNGQPENNYKTTPPVLDSDGSFFLYSKLTVDKSRWQQGNVFSCSVLHEALHSHYTQKSLSLSPGK heavy 2: not shown light: not shown	1.49 nM	0.268 nM	5.59e-05 s⁻¹	209000 M⁻¹ s⁻¹	no binding (tested: 1e-6 M)	no binding (tested: 1e-6 M)
TL1A-0375 (bispecific antibody, also called TL1A-0375 MBsAb; not shown: human IgG1 constant region with effector-minimizing, KiH and LS mutations) heavy 1: QVQLVQSGAEVKKPGASVKVSCKASGYDYTYYGISWVRQAPGQGLEWMGWISTYNTGTHYAPSLQGRVTMTTDTSTSTAYMELRSLRSDDTAVYYCARESYYGSGAFRGGMDVWGQGTTVTVSSASTKGPSVFPLAPSSKSTSGGTAALGCLVKDYFPEPVTVSWNSGALTSGVHTFPAVLQSSGLYSLSSVVTVPSSSLGTQTYICNVNHKPSNTKVDKKVEPKSCDKTHTCPPCPAPEAAGAPSVFLFPPKPKDTLMISRTPEVTCVVVDVSHEDPEVKFNWYVDGVEVHNAKTKPREEQYNSTYRVVSVLTVLHQDWLNGKEYKCKVSNKALPAPIEKTISKAKGQPREPQVCTLPPSREEMTKNQVSLWCLVKGFYPSDIAVEWESNGQPENNYKTTPPVLDSDGSFFLYSKLTVDKSRWQQGNVFSCSVLHEALHSHYTQKSLSLSPGK heavy 2: not shown light: not shown	1.35 nM	0.232 nM	4.9e-05 s⁻¹	211000 M⁻¹ s⁻¹	no binding (tested: 1e-6 M)	no binding (tested: 1e-6 M)
TL1A-0326 (antibody, human IgG1, kappa, one-armed (monovalent) antibody derived from TL1A-0260) heavy 1: QVQLVQSGAEVKKPGASVKVSCKASGYDYTYYGISWVRQAPGQGLEWMGWISTYNTGTHYAPSLQGRVTMTTDTSTSTAYMELRSLRSDDTAVYYCARESYYGSGAFRGGMDVWGQGTTVTVSSASTKGPSVFPLAPSSKSTSGGTAALGCLVKDYFPEPVTVSWNSGALTSGVHTFPAVLQSSGLYSLSSVVTVPSSSLGTQTYICNVNHKPSNTKVDKKVEPKSCDKTHTCPPCPAPEAAGAPSVFLFPPKPKDTLMISRTPEVTCVVVDVSHEDPEVKFNWYVDGVEVHNAKTKPREEQYNSTYRVVSVLTVLHQDWLNGKEYKCKVSNKALPAPIEKTISKAKGQPREPQVCTLPPSREEMTKNQVSLWCLVKGFYPSDIAVEWESNGQPENNYKTTPPVLDSDGSFFLYSKLTVDKSRWQQGNVFSCSVLHEALHSHYTQKSLSLSPGK heavy 2: EPKSSDKTHTCPPCPAPEAAGAPSVFLFPPKPKDTLMISRTPEVTCVVVDVSHEDPEVKFNWYVDGVEVHNAKTKPREEQYNSTYRVVSVLTVLHQDWLNGKEYKCKVSNKALPAPIEKTISKAKGQPREPQVYTLPPCREEMTKNQVSLSCAVKGFYPSDIAVEWESNGQPENNYKTTPPVLDSDGSFFLVSKLTVDKSRWQQGNVFSCSVLHEALHSHYTQKSLSLSPGK light: not shown	1.28 nM	0.292 nM	5.84e-05 s⁻¹	200000 M⁻¹ s⁻¹	no binding (tested: 1e-6 M)	no binding (tested: 1e-6 M)
